Measurements published in patent US20130071374.

Tested on: (His)6PemI

## PemK(His)6
  cleavage of mazG mRNA (native PAGE of digestion products): the addition of PemI inhibited the cleavage of mazG mRNA in a dose-dependent manner
